Laboratory results as given in publication PMC11100904, “How short peptides can disassemble ultra-stable tau fibrils extracted from Alzheimer’s disease brain by a strain-relief mechanism” (Research Square, 2024).

Target: T1, 15N,13C-labeled tau K18+ (residues Gln244-Glu380 of 4R tau) (UniProt P10636-8 244-380)
T1 construct: Uniformly 15N,13C isotope-labelled for NMR; purified as the unlabeled protein; also called tau K18+ monomer; tau monomers; source: E. coli BL21-Gold, M9 medium with 15NH4Cl and 13C-glucose, purified (boiling, HiTrap SP HP ion exchange, Superdex 75)
Experiment: NMR titration; 1H-15N HSQC, 0.1 mM 15N,13C-labeled tau K18+ in 100 mM KCl, 20 mM NaH2PO4, 1 mM TCEP, 5%/95% D2O/H2O, pH 7.0, without or with 1 mM peptide (10-fold molar excess), 25 °C; chemical shift perturbation; one concentration, changes seen over time (2.5 months at 4 °C for D-TLKIVWI)
Settings: both partners purified

T1 sequence (P10636 561-697): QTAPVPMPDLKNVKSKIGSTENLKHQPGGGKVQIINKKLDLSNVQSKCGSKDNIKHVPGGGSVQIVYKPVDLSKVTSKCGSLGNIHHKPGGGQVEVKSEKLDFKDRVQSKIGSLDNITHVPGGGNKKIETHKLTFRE

binding result: binds
B1: L-TLKIVWI (peptide)
peptide: TLKIVWI
notes: L-enantiomer of the designed peptide D-TLKIVWI; All L-amino acids; also called L-TLKIVWX (X = I); source: synthetic peptide (GenScript, purified to ≥98%)
